One test has as its system PLCγ pY783. Briefly: Tyrosine phosphorylation of PLCγ. The conditions noted are these: L6 myoblasts stably expressing FGFR1; 100 ng/mL FGF, 5 min, 37 °C; anti-pY783 (PLCγ) immunoblot. The class given is cell-based. (Immunoblotting shows a protein as a band on a membrane.)
Test [1] deals with FGFR1-3P (trisphosphorylated cytoplasmic region of FGFR1: tyrosine kinase domain and C-terminal tail) (UniProt P11362). Briefly: ITC.
Test [2] shares this target. Briefly: SPR. For orientation: SPR reads the build-up and loss of mass on a sensor chip optically.
Test [3] shares this target. Briefly: SPR. This is another data set of the same source.
The target in test [4] is pY766 peptide (synthetic phosphopeptide of the C-terminal region of FGFR1, TSNQEpYLDLSM). The test is described as follows: SPR.
The next test addresses FGFR1-3P(RD/VV) (UniProt P11362). Briefly: ITC. (In ITC the heat of successive injections is recorded.)
In the next test the target is FGFR1-3P(VV/DD) (UniProt P11362). The test is described as follows: ITC.
Test [5] concerns the target T1, isolated C-SH2 domain of PLCγ (rat).
T1 sequence (P10686 whole entry, looked up): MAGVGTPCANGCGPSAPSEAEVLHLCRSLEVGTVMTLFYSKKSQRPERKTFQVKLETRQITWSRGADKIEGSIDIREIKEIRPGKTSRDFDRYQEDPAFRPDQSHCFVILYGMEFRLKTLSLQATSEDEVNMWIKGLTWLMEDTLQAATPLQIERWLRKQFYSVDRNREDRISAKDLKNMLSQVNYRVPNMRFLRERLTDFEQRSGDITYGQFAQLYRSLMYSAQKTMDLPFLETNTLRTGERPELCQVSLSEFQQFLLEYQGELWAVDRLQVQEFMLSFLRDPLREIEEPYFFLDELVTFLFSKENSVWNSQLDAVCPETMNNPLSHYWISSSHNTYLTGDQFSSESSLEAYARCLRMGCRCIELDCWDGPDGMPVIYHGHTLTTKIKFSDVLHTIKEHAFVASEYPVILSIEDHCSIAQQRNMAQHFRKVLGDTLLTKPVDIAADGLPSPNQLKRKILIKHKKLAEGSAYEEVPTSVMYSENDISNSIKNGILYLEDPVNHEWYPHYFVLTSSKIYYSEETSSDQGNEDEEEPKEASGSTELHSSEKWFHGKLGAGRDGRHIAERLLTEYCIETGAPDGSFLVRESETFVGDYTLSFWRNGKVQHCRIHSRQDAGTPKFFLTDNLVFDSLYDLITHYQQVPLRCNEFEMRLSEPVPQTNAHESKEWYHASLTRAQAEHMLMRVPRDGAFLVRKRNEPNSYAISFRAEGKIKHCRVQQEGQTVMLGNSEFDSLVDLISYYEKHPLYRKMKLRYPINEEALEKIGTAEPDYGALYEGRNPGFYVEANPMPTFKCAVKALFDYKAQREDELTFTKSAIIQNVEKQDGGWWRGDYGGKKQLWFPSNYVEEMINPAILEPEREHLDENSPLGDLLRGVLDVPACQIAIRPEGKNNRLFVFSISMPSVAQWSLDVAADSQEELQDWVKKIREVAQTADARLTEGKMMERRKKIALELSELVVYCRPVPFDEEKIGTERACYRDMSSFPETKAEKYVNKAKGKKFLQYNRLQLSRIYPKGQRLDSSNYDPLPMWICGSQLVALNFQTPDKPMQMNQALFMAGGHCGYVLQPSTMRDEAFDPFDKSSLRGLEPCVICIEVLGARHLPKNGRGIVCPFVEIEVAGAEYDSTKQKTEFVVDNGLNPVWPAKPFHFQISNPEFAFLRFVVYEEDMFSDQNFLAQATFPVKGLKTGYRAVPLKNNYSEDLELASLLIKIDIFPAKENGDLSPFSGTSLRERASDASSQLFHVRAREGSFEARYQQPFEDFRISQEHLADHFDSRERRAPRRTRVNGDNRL
Briefly: ITC.

In test [6] the target is T2, isolated N-SH2 domain of PLCγ (rat).
T2 sequence (P10686 whole entry, looked up): T1 sequence (P10686 whole entry, looked up)
The test is described as follows: ITC.

Square brackets hold non-standard residues; d marks the D form. pY = N[C@@H](Cc1ccc(OP(=O)(O)O)cc1)C(=O)O

As for “FGFR1(Y766F): FGFR1 mutant Y766F in the primary binding site for the N-SH2 domain, expressed in L6 myoblasts”, in the test on PLCγ pY783, the “tyrosine phosphorylation of PLCγ” value is “negligible tyrosine phosphorylation of PLCγ”.
Same read-out and setting: for “WT FGFR1: wild type FGFR1 stably expressed in L6 myoblasts” the value was “tyrosine phosphorylation of PLCγ”.
Consider “isolated C-SH2 domain of PLCγ (domain or fragment)”, for which the Kd (in general, the free concentration of one partner at which half of the binding sites on the other are occupied at equilibrium, for simple one-to-one binding) in [1] is 490 nM.
In the case of “isolated N-SH2 domain of PLCγ (domain or fragment)”, the Kd in test [2] is 44 nM; in [3], 142 nM; in test [4], 5670 nM; in test [1], 33 nM; with FGFR1-3P(RD/VV), 112 nM; with FGFR1-3P(VV/DD) it was 221 nM.
As to {biotin‑XX}-TSNQE[pY]LDLSM-NH2 [pY766 peptide (synthetic phosphopeptide of the C-terminal region of FGFR1, TSNQEpYLDLSM)], the Kd in test [5] was 1810 nM; in [6], 433 nM.

The values above are taken from article PMC4764080 (Cell, 2009).
